2 molecules from publication PMC12859064 can be followed below.

The experiment addresses Flag-Axin1 (mouse). As to the kind of experiment: SPR; BIAcore 8K, CM5 chip; Flag-Axin1 immobilised by amine coupling (20 μg/mL, sodium acetate pH 4.5); analytes 25-400 nM, 30 μL/min, 120 s association, 300 s dissociation; step of the Axin1 self-association not told.

Molecule Flag-Axin1 (natural protein) registered a Kd of 0.147 µM.

B1: Flag-TRIM15 (natural protein)
chain: MPATPSLKVVHELPACTLCAGPLEDAVTIPCGHTFCRLCLPALSQMGAQSSGKILLCPLCQEEEQAETPMAPVPLGPLGETYCEEHGEKIYFFCENDAEFLCVFCREGPTHQAHTVGFLDEAIQPYRDRLRSRLEALSTERDEIEDVKCQEDQKLQVLLTQIESKKHQVETAFERLQQELEQQRCLLLARLRELEQQIWKERDEYITKVSEEVTRLGAQVKELEEKCQQPASELLQDVRVNQSRCEMKTFVSPEAISPDLVKKIRDFHRKILTLPEMMRMFSENLAHHLEIDSGVITLDPQTASRSLVLSEDRKSVRYTRQKKSLPDSPLRFDGLPAVLGFPGFSSGRHRWQVDLQLGDGGGCTVGVAGEGVRRKGEMGLSAEDGVWAVIISHQQCWASTSPGTDLPLSEIPRGVRVALDYEAGQVTLHNAQTQEPIFTFTASFSGKVFPFFAVWKKGSCLTLKG
B1 yielded a Kd of 0.0378 µM.

As usually defined, the Kd is the concentration at which binding is half-saturated. Lower therefore signals higher affinity.
